What all share (test): ELISA; receptor in solution, complex captured on BMP-7 GF mAb
On the technique in general: An ELISA detects its analyte on a solid surface through an enzyme-linked reagent.

Assay [1] addresses BMP-7 complex containing biotinylated GF (mature BMP-7 biotinylated through the glycan, reconstituted with … (human, UniProt P18075 293-431, biotin through the sugars (sodium metaperiodate, hydrazide PEG4 Biotin))).
In assay [2] the target is unbiotinylated BMP-7 complex (bone morphogenetic protein 7 mature domain/prodomain soluble complex) (human, UniProt P18075 293-431).
Chain of unbiotinylated BMP-7 complex (bone morphogenetic protein 7 mature domain/prodomain soluble complex) (P18075 30-292, chain 1 of 2): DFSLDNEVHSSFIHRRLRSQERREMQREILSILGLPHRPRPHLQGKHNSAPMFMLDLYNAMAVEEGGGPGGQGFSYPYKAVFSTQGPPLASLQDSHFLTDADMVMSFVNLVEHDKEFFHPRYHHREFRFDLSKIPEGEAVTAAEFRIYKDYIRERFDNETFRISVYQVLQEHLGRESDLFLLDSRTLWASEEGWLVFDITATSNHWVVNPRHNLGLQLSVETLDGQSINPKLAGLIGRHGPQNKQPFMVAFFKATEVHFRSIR
Chain of unbiotinylated BMP-7 complex (bone morphogenetic protein 7 mature domain/prodomain soluble complex) (P18075 293-431, chain 2 of 2): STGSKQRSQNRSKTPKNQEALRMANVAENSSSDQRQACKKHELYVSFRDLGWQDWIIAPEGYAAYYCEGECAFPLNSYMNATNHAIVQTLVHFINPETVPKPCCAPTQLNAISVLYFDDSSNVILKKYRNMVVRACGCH
The target in assay [3] is BMP-7 complex containing biotinylated prodomain (prodomain biotinylated through amines, reconstituted with … (human, UniProt P18075 293-431, biotin through amines (EZ-Link NHS-PEG4-Biotin))).
Chain of BMP-7 complex containing biotinylated prodomain (prodomain biotinylated through amines, reconstituted with … (P18075 30-292, chain 1 of 2): as the sequence (P18075 30-292, chain 1 of 2) above
Chain of BMP-7 complex containing biotinylated prodomain (prodomain biotinylated through amines, reconstituted with … (P18075 293-431, chain 2 of 2): as the sequence (P18075 293-431, chain 2 of 2) above

Chain of BMP-7 complex containing biotinylated GF (mature BMP-7 biotinylated through the glycan, reconstituted with … (P18075 30-292, chain 1 of 2): as the sequence (P18075 30-292, chain 1 of 2) above
Chain of BMP-7 complex containing biotinylated GF (mature BMP-7 biotinylated through the glycan, reconstituted with … (P18075 293-431, chain 2 of 2): as the sequence (P18075 293-431, chain 2 of 2) above

B1: BMPR2-Fc (bone morphogenetic protein receptor type-2 fused to Fc) (Fc fusion)
chain: SQNQERLCAFKDPYQQDLGIGESRISHENGTILCSKGSTCYGLWEKSKGDINLVKQGCWSHIGDPQECHYEECVVTTTPPSIQNGTYRFCCCSTDLCNVNFTENFPPPDTTPLSPPHSFNRDET
What is called Kd is the equilibrium constant for the complex coming apart. Read a high Kd as weaker binding. Consider B1, for which the Kd is 8.7 nM in assay [1], 11.9 nM in assay [2] and 19 nM in assay [3].

These data come from article PMC8801479 (2021).
